Data reported in patent US20200376034A1 (DRAGONFLY THERAPEUTICS, published 2020).

Tests used:
[1] = molecular target: T1, human CD33 extracellular domain (human, UniProt P20138 18-259); experiment: SPR, Fab captured, 37 C
T1 construct: also called human CD33 ECD; hCD33
Method: (§1) Kinetics and affinity of a series of Fab fragments of anti-CD33 antibodies with different CD33 variants (human CD33 ECD, cyno CD33 ECD, V-domain of human CD33, C-domain or human CD33 and selected CD33 SNPs) were assessed by surface plasmon resonance using Biacore 8K instrument (GE Healthcare). Anti-Fab antibody was immobilized on a CMS chip using standard amine coupling chemistry. CD33 FABs were captured on the anti-Fab chip at a density of ˜100 RU. Solutions containing different concentrations of soluble monomeric CD33 or its domains were injected over the captured FABs and control surfaces at 30 μl/min at 37° C. Surfaces were regenerated between cycles by quick injection of 10 mM glycine, pH 1.8. To obtain kinetic rate constants double-referenced data were fit to a 1:1 interaction model using Biacore 8K Evaluation software (GE Healthcare). The equilibrium binding constant KD was determined by the ratio of binding rate constants kd/kₐ.
(§2) Affinity of 29 Fab fragments binding to human and cyno CD33 ECD were assayed by Biacore analysis.

[2] = molecular target: T1, human CD33 extracellular domain; experiment: SPR, Fab captured, 37 C; remark: listed apart in the source
Method: as §1, §2

[3] = molecular target: T1, human CD33 extracellular domain; experiment: SPR, Fab captured, 37 C; remark: listed apart in the source
Method: as §1, §2

[4] = molecular target: T2, deglycosylated V domain of human CD33 (human, UniProt P20138 18-139, limits assumed, deglycosylated by PNGase); experiment: SPR, Fab captured, 37 C
T2 construct: whole entry named; also called deglycosylated V CD33
Method: as §1
The ability of anti-CD33 antibodies to recognize glycosylated CD33 was assayed. […] De-glycosylation status was confirmed by a shift on SDS-PAGE and MS.

[5] = molecular target: T1, human CD33 extracellular domain; experiment: SPR, Fab captured, 37 C; remark: listed apart in the source
Method: as §1

[6] = molecular target: T1, human CD33 extracellular domain; experiment: BLI, IgG on sensor
Method: Briefly, ForteBio affinity measurements were performed by loading IgGs on-line onto AHC sensors. Sensors were equilibrated off-line in assay buffer for 30 min and then monitored on-line for 60 seconds for baseline establishment. Sensors with loaded IgGs were exposed to 100 nM antigen for 3 minutes, and afterwards were transferred to assay buffer for 3 min for off-rate measurement. All kinetics were analyzed using the 1:1 binding model.

| Binder | koff [1] | kon [1] | koff [2] | kon [2] | koff [3] | kon [3] | koff [4] | kon [4] | koff [5] | kon [5] | koff [6] | kon [6] |
| --- | --- | --- | --- | --- | --- | --- | --- | --- | --- | --- | --- | --- |
| ADI-10163 Fab (Fab, V domains shown, Fab fragment; also called Ab17) VH: QVQLQESGPGLVKPSQTLSLTCTVSGGSISSGGYYWSWIRQHPGKGLEWIGSIYYSGSTYYNPSLKSRVTISVDTSKNQFSLKLSSVTAADTAVYYCARDRLDYSYNYGMDVWGQGTTVTVSS VL: DIQMTQSPSSLSASVGDRVTITCRASQSISSYLNWYQQKPGKAPKLLIYGASSLQSGVPSRFSGSGSGTDFTLTISSLQPEDFATYYCQQVYSAPFTFGGGTKVEIK | 0.0275 s⁻¹ | 515000 M⁻¹ s⁻¹ | 0.0275 s⁻¹ | 515000 M⁻¹ s⁻¹ | 0.0275 s⁻¹ | 515000 M⁻¹ s⁻¹ | 0.256 s⁻¹ | 1.68e+06 M⁻¹ s⁻¹ | 0.0275 s⁻¹ | 515000 M⁻¹ s⁻¹ |  |  |
| ADI-10173 Fab (Fab, V domains shown, Fab fragment; also called Ab22) VH: QVQLVQSGAEVKKPGASVKVSCKASGYTFTSYYMHWVRQAPGQGLEWMGIINPSGGSTTYAQKFQGRVTMTRDTSTSTVYMELSSLRSEDTAVYYCAREAADGFVGERYFDLWGRGTLVTVSS VL: not shown | 0.0125 s⁻¹ | 212000 M⁻¹ s⁻¹ | 0.0125 s⁻¹ | 212000 M⁻¹ s⁻¹ | 0.0125 s⁻¹ | 212000 M⁻¹ s⁻¹ | 0.131 s⁻¹ | 674000 M⁻¹ s⁻¹ | 0.0125 s⁻¹ | 212000 M⁻¹ s⁻¹ |  |  |
| ADI-10173 IgG (antibody, V domains shown, IgG; also called Ab22) VH: QVQLVQSGAEVKKPGASVKVSCKASGYTFTSYYMHWVRQAPGQGLEWMGIINPSGGSTTYAQKFQGRVTMTRDTSTSTVYMELSSLRSEDTAVYYCAREAADGFVGERYFDLWGRGTLVTVSS VL: not shown |  |  |  |  |  |  |  |  |  |  | 0.00314 s⁻¹ | 324000 M⁻¹ s⁻¹ |
| ADI-10163 IgG (antibody, V domains shown, IgG; also called Ab17) VH: QVQLQESGPGLVKPSQTLSLTCTVSGGSISSGGYYWSWIRQHPGKGLEWIGSIYYSGSTYYNPSLKSRVTISVDTSKNQFSLKLSSVTAADTAVYYCARDRLDYSYNYGMDVWGQGTTVTVSS VL: DIQMTQSPSSLSASVGDRVTITCRASQSISSYLNWYQQKPGKAPKLLIYGASSLQSGVPSRFSGSGSGTDFTLTISSLQPEDFATYYCQQVYSAPFTFGGGTKVEIK |  |  |  |  |  |  |  |  |  |  | 0.00453 s⁻¹ | 665000 M⁻¹ s⁻¹ |
